Molecular target: Nogo receptor (NgR)
Experiment: cell-based or functional assay

Row | neurite outgrowth of cerebellar neurons on MAG-expressing CHO cells, peptide at 15 uM (FIG. 4) [fold] | Binder
1 | 2 | VAFELPSRNVTVNETEREFVYSERSGLLLT [MAG peptide MAG(442-471)]
2 | 2 | AAARDTVQCLCVVKSNPEPSVAFELPSRNV [MAG peptide MAG(422-451)]

Source: US20040121341A1 (RESEARCH FOUNDATION OF CITY UNIVERSITY OF NEW YORK, published 2004)
